Test results taken from article PMC5449601.

B1: MALAT1 hairpin 2,515-A (structured_RNA)
RNA: AAUGUGAAGGACUUUCGUAACGGAAGUAAUUCAA
modifications: 3' biotin
B2: MALAT1 hairpin 2,515-m6A (structured_RNA)
RNA: B1 RNA
modifications: m6A at position 11; 3' biotin

What was measured:
[1] = biological target: HNRNPG N-RRM (GST fusion) (human, UniProt P38159 1-83); assay: EMSA
[2] = biological target: HNRNPG C-RBD (GST fusion) (human, UniProt P38159 334-391); assay: EMSA
[3] = biological target: HNRNPG C-RBD mutant, all three RGG to FGG (GST fusion) (human, UniProt P38159 334-391, R373F;R377F;R384F); assay: UV cross-linking
Sequence of HNRNPG C-RBD mutant, all three RGG to FGG (GST fusion) (P38159 334-391 R373F/R377F/R384F): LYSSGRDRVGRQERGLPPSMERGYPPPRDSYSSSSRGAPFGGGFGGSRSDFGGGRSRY

Sequence of HNRNPG N-RRM (GST fusion) (P38159 1-83): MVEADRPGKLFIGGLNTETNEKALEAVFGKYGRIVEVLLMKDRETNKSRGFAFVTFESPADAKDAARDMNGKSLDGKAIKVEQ
Sequence of HNRNPG C-RBD (GST fusion) (P38159 334-391): as the sequence (P38159 334-391 R373F/R377F/R384F) above, with F40R, F44R, F51R counted along it

Binder	binding result [1]	binding result [2]	binding result [3]
B1	no binding	binds	no binding
B2	no binding	binds	no binding
